Molecular target: natural cellular receptor for the adenoviral fiber on 293 cells (human (293 human line)) (UniProt P78310)
Test: cell-based or functional assay

Chain of UniProt P78310 (P78310 20-365): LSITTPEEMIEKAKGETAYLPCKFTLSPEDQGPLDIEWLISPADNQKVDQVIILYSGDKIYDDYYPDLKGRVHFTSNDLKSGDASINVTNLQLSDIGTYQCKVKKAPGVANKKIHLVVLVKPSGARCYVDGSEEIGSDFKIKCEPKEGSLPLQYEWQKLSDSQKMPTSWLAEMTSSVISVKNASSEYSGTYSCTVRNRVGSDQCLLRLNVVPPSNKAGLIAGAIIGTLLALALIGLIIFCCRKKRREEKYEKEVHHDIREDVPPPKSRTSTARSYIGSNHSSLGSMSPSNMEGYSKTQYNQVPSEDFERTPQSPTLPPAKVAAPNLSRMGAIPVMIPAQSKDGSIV

## native Ad5 fiber carried by the recombinant virus AdLacZ (from UniProt P11818 1-581)
  degree of inhibition of infection of 293 cells with AdLacZ by recombinant Ad5 knob at 100 µg/ml (LacZ-positive cells): 95%

From patent publication US20040038205A1
